From US20220401557A1 (Chugai, published 2022) come the findings set out here.

B1: ANuPA04/GLS//GCH065 (bispecific antibody, human IgG1, kappa, N297A)
heavy 1: QDGNEEMGGGSGGGSGGGSLSGRSDNHGGGSQVQLVESGGGLVQPGRSLRLSCAASGFTFSNAWMHWVRQAPGKGLEWVAQIKDKANGYNAYYAESVKGRFTISRDDSKNSIYLQMNSLKTEDTAVYYCRYVHYTTYAGFSYKFGVDAWGQGTTVTVSSASTKGPSVFPLAPSSKSTSGGTAALGCLVKDYFPEPVTVSWNSGALTSGVHTFPAVLQSSGLYSLSSVVTVPSSSLGTQTYICNVNHKPSNTKVDKKVEPKSCDKTHTCPPCPAPELRGGPKVFLFPPKPKDTLMISRTPEVTCVVVDVSHEDPEVKFNWYVDGVEVHNAKTKPREEQYASTYRVVSVLTVLHQDWLNGKEYKCKVSNKALPAPIEKTISKAKGQPREPQVYTLPPSRKEMTKNQVSLTCLVKGFYPSDIAVEWESNGQPENNYKTTPPYLDSDGSFFLYSKLTVDKSRWQQGNVFSCSVMHEALHNHYTQKSLSLSP
light 1: DIVMTQSPLSLPVTPGEPASISCRSSQSLVHSNRNTYLHWYQQKPGQAPRLLIYKVSNRFSGVPDRFSGSGSGTDFTLKISRVEAEDVGVYYCGQGTQVPYTFGQGTKLEIKRTVAAPSVFIFPPSDEQLKSGTASVVCLLNNFYPREAKVQWKVDNALQSGNSQESVTEQDSKDSTYSLSSTLTLSKADYEKHKVYACEVTHQGLSSPVTKSFNRGEC
heavy 2: QVQLVQSGAEVKKPGASVTVSCKASGYTFTDYEMHWIRQPPGEGLEWIGAIDGPTPDTAYSEKFKGRVTLTADKSTSTAYMELSSLTSEDTAVYYCTRFYSYTYWGQGTLVTVSSASTKGPSVFPLAPSSKSTSGGTAALGCLVKDYFPEPVTVSWNSGALTSGVHTFPAVLQSSGLYSLSSVVTVPSSSLGTQTYICNVNHKPSNTKVDKKVEPKSCDKTHTCPPCPAPELRGGPKVFLFPPKPKDTLMISRTPEVTCVVVDVSHEDPEVKFNWYVDGVEVHNAKTKPREEQYASTYRVVSVLTVLHQDWLNGKEYKCKVSNKALPAPIEKTISKAKGQPREPQVYTLPPSREEMTKNQVSLTCLVKGFYPSDIAVEWESNGQPENNYKTTPPYLDSDGSFFLYSKLTVDKSRWQQGNVFSCSVMHEALHNHYTQESLSLSP
light 2: B1 light 1 with S28P
B2: ANuPA20/GLS//GCH065 (bispecific antibody, human IgG1, kappa, N297A)
heavy 1: QDGNEEMGGITQTPYKVSISLSGRSDNHGGGSQVQLVESGGGLVQPGRSLRLSCAASGFTFSNAWMHWVRQAPGKGLEWVAQIKDKANGYNAYYAESVKGRFTISRDDSKNSIYLQMNSLKTEDTAVYYCRYVHYTTYAGFSYKFGVDAWGQGTTVTVSSASTKGPSVFPLAPSSKSTSGGTAALGCLVKDYFPEPVTVSWNSGALTSGVHTFPAVLQSSGLYSLSSVVTVPSSSLGTQTYICNVNHKPSNTKVDKKVEPKSCDKTHTCPPCPAPELRGGPKVFLFPPKPKDTLMISRTPEVTCVVVDVSHEDPEVKFNWYVDGVEVHNAKTKPREEQYASTYRVVSVLTVLHQDWLNGKEYKCKVSNKALPAPIEKTISKAKGQPREPQVYTLPPSRKEMTKNQVSLTCLVKGFYPSDIAVEWESNGQPENNYKTTPPYLDSDGSFFLYSKLTVDKSRWQQGNVFSCSVMHEALHNHYTQKSLSLSP
light 1: B1 light 1
heavy 2: B1 heavy 2
light 2: B1 light 1 with S28P
B3: rCE115/GLS//GCH065 (bispecific antibody, human IgG1, kappa, N297A)
heavy 1: EVQLVETGGSLVQPGKSLKLTCATSGFTFSNAWMHWVRQSPEKQLEWVAQIKAKSNNYATYYAESVKGRFTISRDDSKSNIYLQMNSLKEEDTAVYYCRYVHYGAYYGVDAWGQGTSVTVSSASTKGPSVFPLAPSSKSTSGGTAALGCLVKDYFPEPVTVSWNSGALTSGVHTFPAVLQSSGLYSLSSVVTVPSSSLGTQTYICNVNHKPSNTKVDKKVEPKSCDKTHTCPPCPAPELRGGPKVFLFPPKPKDTLMISRTPEVTCVVVDVSHEDPEVKFNWYVDGVEVHNAKTKPREEQYASTYRVVSVLTVLHQDWLNGKEYKCKVSNKALPAPIEKTISKAKGQPREPQVYTLPPSRKEMTKNQVSLTCLVKGFYPSDIAVEWESNGQPENNYKTTPPYLDSDGSFFLYSKLTVDKSRWQQGNVFSCSVMHEALHNHYTQKSLSLSP
light 1: B1 light 1
heavy 2: B1 heavy 2
light 2: B1 light 1 with S28P
B4: hCE115HA/GLSuPA04//GCH065 (bispecific antibody, human IgG1, kappa, N297A)
heavy 1: QVQLVESGGGVVQPGRSLRLSCAASGFTFSNAWMHWVRQAPGKGLEWVAQIKAKSNNYATYYAESVKGRFTISRDDSKNSLYLQMNSLKTEDTAVYYCRYVHYGAYYGVDAWGQGTTVTVSSASTKGPSVFPLAPSSKSTSGGTAALGCLVKDYFPEPVTVSWNSGALTSGVHTFPAVLQSSGLYSLSSVVTVPSSSLGTQTYICNVNHKPSNTKVDKKVEPKSCDKTHTCPPCPAPELRGGPKVFLFPPKPKDTLMISRTPEVTCVVVDVSHEDPEVKFNWYVDGVEVHNAKTKPREEQYASTYRVVSVLTVLHQDWLNGKEYKCKVSNKALPAPIEKTISKAKGQPREPQVYTLPPSRKEMTKNQVSLTCLVKGFYPSDIAVEWESNGQPENNYKTTPPYLDSDGSFFLYSKLTVDKSRWQQGNVFSCSVMHEALHNHYTQKSLSLSP
light 1: QDGNEEMGGGSGGGSGGGSLSGRSDNHGGGSDIVMTQSPLSLPVTPGEPASISCRSSQSLVHSNRNTYLHWYQQKPGQAPRLLIYKVSNRFSGVPDRFSGSGSGTDFTLKISRVEAEDVGVYYCGQGTQVPYTFGQGTKLEIKRTVAAPSVFIFPPSDEQLKSGTASVVCLLNNFYPREAKVQWKVDNALQSGNSQESVTEQDSKDSTYSLSSTLTLSKADYEKHKVYACEVTHQGLSSPVTKSFNRGEC
heavy 2: B1 heavy 2
light 2: B1 light 1 with S28P
B5: hCE115HA/GLSuPA20//GCH065 (bispecific antibody, human IgG1, kappa, N297A)
heavy 1: B4 heavy 1
light 1: QDGNEEMGGITQTPYKVSISLSGRSDNHGGGSDIVMTQSPLSLPVTPGEPASISCRSSQSLVHSNRNTYLHWYQQKPGQAPRLLIYKVSNRFSGVPDRFSGSGSGTDFTLKISRVEAEDVGVYYCGQGTQVPYTFGQGTKLEIKRTVAAPSVFIFPPSDEQLKSGTASVVCLLNNFYPREAKVQWKVDNALQSGNSQESVTEQDSKDSTYSLSSTLTLSKADYEKHKVYACEVTHQGLSSPVTKSFNRGEC
heavy 2: B1 heavy 2
light 2: B1 light 1 with S28P
B6: ANuPA27/GLS//GCH065 (bispecific antibody, human IgG1, kappa, N297A)
heavy 1: QDGNEEMGGITQTPYKVSISGTTVILTLSGRSDNHQVQLVESGGGLVQPGRSLRLSCAASGFTFSNAWMHWVRQAPGKGLEWVAQIKDKANGYNAYYAESVKGRFTISRDDSKNSIYLQMNSLKTEDTAVYYCRYVHYTTYAGFSYKFGVDAWGQGTTVTVSSASTKGPSVFPLAPSSKSTSGGTAALGCLVKDYFPEPVTVSWNSGALTSGVHTFPAVLQSSGLYSLSSVVTVPSSSLGTQTYICNVNHKPSNTKVDKKVEPKSCDKTHTCPPCPAPELRGGPKVFLFPPKPKDTLMISRTPEVTCVVVDVSHEDPEVKFNWYVDGVEVHNAKTKPREEQYASTYRVVSVLTVLHQDWLNGKEYKCKVSNKALPAPIEKTISKAKGQPREPQVYTLPPSRKEMTKNQVSLTCLVKGFYPSDIAVEWESNGQPENNYKTTPPYLDSDGSFFLYSKLTVDKSRWQQGNVFSCSVMHEALHNHYTQKSLSLSP
light 1: B1 light 1
heavy 2: B1 heavy 2
light 2: B1 light 1 with S28P
B7: hCE115HAGS/GLS//GCH065 (bispecific antibody, human IgG1, kappa, N297A)
heavy 1: QDGNEGGGSGGGSQVQLVESGGGVVQPGRSLRLSCAASGFTFSNAWMHWVRQAPGKGLEWVAQIKAKSNNYATYYAESVKGRFTISRDDSKNSLYLQMNSLKTEDTAVYYCRYVHYGAYYGVDAWGQGTTVTVSSASTKGPSVFPLAPSSKSTSGGTAALGCLVKDYFPEPVTVSWNSGALTSGVHTFPAVLQSSGLYSLSSVVTVPSSSLGTQTYICNVNHKPSNTKVDKKVEPKSCDKTHTCPPCPAPELRGGPKVFLFPPKPKDTLMISRTPEVTCVVVDVSHEDPEVKFNWYVDGVEVHNAKTKPREEQYASTYRVVSVLTVLHQDWLNGKEYKCKVSNKALPAPIEKTISKAKGQPREPQVYTLPPSRKEMTKNQVSLTCLVKGFYPSDIAVEWESNGQPENNYKTTPPYLDSDGSFFLYSKLTVDKSRWQQGNVFSCSVMHEALHNHYTQKSLSLSP
light 1: B1 light 1
heavy 2: B1 heavy 2
light 2: B1 light 1 with S28P
B8: hCE115HA/GLSGS//GCH065 (bispecific antibody, human IgG1, kappa, N297A)
heavy 1: B4 heavy 1
light 1: QDGNEGGGSGGGSGGGSDIVMTQSPLSLPVTPGEPASISCRSSQSLVHSNRNTYLHWYQQKPGQAPRLLIYKVSNRFSGVPDRFSGSGSGTDFTLKISRVEAEDVGVYYCGQGTQVPYTFGQGTKLEIKRTVAAPSVFIFPPSDEQLKSGTASVVCLLNNFYPREAKVQWKVDNALQSGNSQESVTEQDSKDSTYSLSSTLTLSKADYEKHKVYACEVTHQGLSSPVTKSFNRGEC
heavy 2: B1 heavy 2
light 2: B1 light 1 with S28P
B9: hCE115HA/GLSuPA27//GCH065 (bispecific antibody, human IgG1, kappa, N297A)
heavy 1: B4 heavy 1
light 1: QDGNEEMGGITQTPYKVSISGTTVILTLSGRSDNHDIVMTQSPLSLPVTPGEPASISCRSSQSLVHSNRNTYLHWYQQKPGQAPRLLIYKVSNRFSGVPDRFSGSGSGTDFTLKISRVEAEDVGVYYCGQGTQVPYTFGQGTKLEIKRTVAAPSVFIFPPSDEQLKSGTASVVCLLNNFYPREAKVQWKVDNALQSGNSQESVTEQDSKDSTYSLSSTLTLSKADYEKHKVYACEVTHQGLSSPVTKSFNRGEC
heavy 2: B1 heavy 2
light 2: B1 light 1 with S28P

Where a chain is given by its changes, count along the chain named.

This assay deals with CD3 on NFAT-RE-luc2-Jurkat cells (human, UniProt P07766 23-207). The assay is described as follows: cell-based or functional assay.
Sequence of CD3 on NFAT-RE-luc2-Jurkat cells (P07766 23-207): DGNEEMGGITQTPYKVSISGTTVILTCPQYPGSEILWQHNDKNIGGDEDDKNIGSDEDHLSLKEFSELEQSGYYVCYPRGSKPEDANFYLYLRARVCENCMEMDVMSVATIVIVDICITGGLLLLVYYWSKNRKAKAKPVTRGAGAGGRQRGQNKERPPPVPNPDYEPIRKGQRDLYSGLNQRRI
Consider B1, for which the “increase rate due to the protease treatment (luciferase, uPA-treated / untreated), antibody 0.1 nM” value was determined as 1.9 ratio and the “increase rate due to the protease treatment (luciferase, uPA-treated / untreated), antibody 1 nM” value was 3 ratio.
For the molecule B2, the “increase rate due to the protease treatment (luciferase, uPA-treated / untreated), antibody 0.1 nM” value came to 1.5 ratio and the “increase rate due to the protease treatment (luciferase, uPA-treated / untreated), antibody 1 nM” value is 2.2 ratio.
On to B3, for which the “increase rate due to the protease treatment (luciferase, uPA-treated / untreated), antibody 0.1 nM” value was found to be 0.7 ratio and the “increase rate due to the protease treatment (luciferase, uPA-treated / untreated), antibody 1 nM” value was 0.9 ratio.
The corresponding values for B4 are 1.1 ratio and 8.2 ratio.
The corresponding values for B5 are 1.6 ratio and 3 ratio.
With B6, the “increase rate due to the protease treatment (luciferase, uPA-treated / untreated), antibody 0.1 nM” value worked out at 0.9 ratio and the “increase rate due to the protease treatment (luciferase, uPA-treated / untreated), antibody 1 nM” value worked out at 0.9 ratio.
As to B7, the “increase rate due to the protease treatment (luciferase, uPA-treated / untreated), antibody 0.1 nM” value was 1 ratio and the “increase rate due to the protease treatment (luciferase, uPA-treated / untreated), antibody 1 nM” value was determined as 1 ratio.
As for B8, the “increase rate due to the protease treatment (luciferase, uPA-treated / untreated), antibody 0.1 nM” value amounted to 1 ratio and the “increase rate due to the protease treatment (luciferase, uPA-treated / untreated), antibody 1 nM” value is 0.9 ratio.
For B9, in that order: 1 ratio and 2.3 ratio.
